Measured values from the nanobody polyreactivity screen of Harvey et al. (2022).

Assay: yeast display, Sf9 membrane polyspecificity reagent, FACS + sequencing; frameworks hold sequencing errors
Summary of the method: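 Genes from sorted yeast were amplified by colony PCR, read by MiSeq 2 × 250 sequencing and filtered on CDR length. These cells carried a synthetic nanobody library in Saccharomyces cerevisiae BJ5465 and were sorted by FACS into low and high (top ~1%) gates on anti-HA and streptavidin fluorescence. Polyreactivity is labelled according to the gate of origin.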

Row | Sequence | polyreactivity (PSR sort gate)
1 | QDQLVESGGGLVQAGGSLRLSCAASGRIFVHNAMGWYRQAPGKERELVAAIYQNGGRTYYADSVKGRFTISRDNAMNTVYLQMNSLKPEDTAVYYCAAGQARAGLIGGYWGQGTQVTVSS | high polyreactivity
2 | QDQLVESGGGLVQAGGSLRLSCAASGRILASYAMGWYRQAPGKERELVAAISLSGGSTYYADSVKGRFTISRDNAKNTVYLQMNSLKPEDTAVTYCAAKYPQKTPVNSYGNSFYYWGQGTQVTGSS | low polyreactivity
3 | QDQLVESGGGLVQAGGSLRLSCAASGRILPYYTMGWYRQAPGKERELVAAISKRGTSTYYADSVKGRFTISRDNAKNTVYLQMNSLKPEDTAVYYCAKRGPGVDYDYWGQGTQVTVSS | high polyreactivity
4 | QDQLVESGGGLVQAGGSLRLSCAASGRILRQYAMGWYRQAPGKERELVAAITSGDSTYYADSVKGRFTISRDNAKNTVYLQMNSLKTEDTAVYYCAAYSWLYEGYEYWGQGTQVTVSS | high polyreactivity
5 | QDQLVESGGGLVQAGGSLRLSCAASGRTFAKSAMGWYRQAPGKERELVASISRRGGSTYYADSVKGRFTISRDNAKNTVYLQMNSLKPEDTAVYYCNAVVTVNGYDSWGQGTQVTVSS | high polyreactivity
6 | QDQLVESGGGLVQAGGSLRLSCAASGRTFHRNAMGLYRQAPGKERELVAAITGTGGRTYYADSVKGRFTISRDNAKNTVYLQMNSLKPEDTEVYYCAARPWIKSGYWGQGTQVTVSW | high polyreactivity
7 | QDQLVESGGGLVQAGGSLRLSCAASGRTFPYKAMGWYRQAPGKERELVAAISYAGGRTYYADSVKGRFTISRDTAKNTVYLQMNSLKPEDTAVYYCYALGSGREDDYWGQGTQVTVSS | high polyreactivity
8 | QDQLVESGGGLVQAGGSLRLSCAASGRTFSTYAMGWYRQAHGKERELVARITSSGGSTYFADSVKGRFTISRDNAKNTVYLQMNSLKPEDTAVYYCAADAWSYWGYPYWWGYDYWGQGTQVTVSS | high polyreactivity
9 | QDQLVESGGGLVQAGGSLRLSCAASGRTFTTNDMGWYRQAPGKEWELVAGISWSGGSTFYADSVKGRFTISRDNAKNTVYLQMNSLKPEDTAVYSCATSARSYQSAYGHYTWYDYWGQGTQVTVSS | low polyreactivity
10 | QDQLVESGGGLVQAGGSLRLSCAASGRTFVFYAMGWYRQAPGKERELVAAITSGTSTNYADSVKGRFTISRDNAMNTVYLQMNSLKPEDTAVYYCAAYWTDLTYSIGFGYWGQGTQVTVSS | low polyreactivity
11 | QDQLVESGGGLVQAGGSLRLSCAASGRTFWRYAMGWYRQAPGKERELVAAITSGGGSTYYADSVKGRFTISRDTAKNTVYLQMNSLKPEDTAVSYCNRAGRGRSFKGDYWGQGTQVTVSS | high polyreactivity
12 | QDQLVESGGGLVQAGGSLRLSCAASGRTFWVYAKGWYRQAPGKERELVAGISWDDGSTYYADSVKGRFTISRDNAKNTVYLQMNSLKPEDTAVYYCAADAYFIFYISYEYWGQGTQVTVSS | low polyreactivity
13 | QDQLVESGGGLVQAGGSLRLSCAASGRTFYIYAMGWYRQATGKERELVAAISSYTSTKYADSVKGRFTISRDNAKNTVYLQMICLKPEDTAVYYCASGYPVRYRGYLNWSYYAYDYWGQGTQVTVSS | low polyreactivity
14 | QDQLVESGGGLVQAGGSLRLSCAASGRTFYLYAMGWYRQAPGKERELVARISWGGGRTYYADSVKGRFTISRDNAKNTVYLQMNSLKPEDTAVYYCNAQSPRGFTTTRQVYPLNGYWGQGTQVTVSS | high polyreactivity
15 | QDQLVESGGGLVQAGGSLRLSCAASGRTFYRYAMGWYRQAPGKERELVASITRGTSTNYADSVKGRFTISRDNAKNTVYLQMNSLKPEDTAVYYCNRRIFGGQRMYYWGQGTQVTVSS | high polyreactivity
16 | QDQLVESGGGLVQAGGSLRLSCAASGRTIFRNAMGWYRQAPGKERELVAAITWSGGSTYYADSVKGRFTISRDNAKNTVYLQMNSLKPEDTAVYYCNRKRYGSDYEYWGQGTQVTVSS | low polyreactivity

Row | Sequence | polyreactivity (PSR sort gate)
17 | QDQLVESGGGLVQAGGSLRLSCAASGRTLTRYTMGWYRQAPGKERELVATISRSGGNTHYADSVKGRFTISRDTAKNTVYLQMNSLIPEDTAVYYCNAVRYAIYGYDYWGQGTQVTVSS | high polyreactivity
18 | QDQLVESGGGLVQAGGSLRLSCAASGSIFADYVMGWYRQAPGKERELVAAITRRGRTYYADSVKGRFTISRDNAKNNVYLQMNSLKPEDTAVYYCAKVAYGKIDSWGQGTQVTVSS | low polyreactivity
19 | QDQLVESGGGLVQAGGSLRLSCAASGSIFDRNAMGWYRQAPGKERELVAAITSRGGRTYYADSVKGRFTISRDNAKNTVYLQMNSLKPEDTAVYYCNAVYSQSGYFYRFDYWGQGTQVTVSS | high polyreactivity
20 | QDQLVESGGGLVQAGGSLRLSCAASGSIFDVNAMGWYRQAPGKERELVAAISDSGGSTYYADSVKGRFTISRDNAKNTVYLQMNSLKPEDTAVYYCNADWSWYNYYDFDYWGQGTQVTVSS | low polyreactivity
21 | QDQLVESGGGLVQAGGSLRLSCAASGSIFGRYAMGWYRQAPGKERELVANITSGDSTNYADSVKGRFTISRDNAKNTVYLQMNSLKPEDTAVYYCAADTIYFYYYRHWYSKYYYWGQGTQVTVSS | high polyreactivity
22 | QDQLVESGGGLVQAGGSLRLSCAASGSIFGWYAMGWYRQAPGKERELVAAITWSGGSTYYADSVKGRFTISRDNAKNTVYLQMNSRKPEDTAVYYCAATYYGYVGRYDYWGQGTQVTVSS | high polyreactivity
23 | QDQLVESGGGLVQAGGSLRLSCAASGSIFNVNTMGWYRQAPGKERGLVAAISYSGGSTYYADSVKGRFTISRDNAKNTVYLQMNSLKPEETAVYYCNVSPTTSGDGGGYDSWGQGTQVTVSS | low polyreactivity
24 | QDQLVESGGGLVQAGGSLRLSCAASGSIFSVYVMGWYRQAPGKERELVATISSGGGTYYADSVKGRFTISRDNAKNTVYLQMNSLKPEDTAVYYCNADWDDWKGDYWGQGTQVTVSS | low polyreactivity
25 | QDQLVESGGGLVQAGGSLRLSCAASGSIFSYYAMGWYRQAPGKERELVAAIRRGGSTYYADSVKGRFTISRDNEKNSVYLQMNSLKPEDNAVYYCAASLGWRFYYWGQGTQVTVSS | high polyreactivity
26 | QDQLVESGGGLVQAGGSLRLSCAASGSIFTRYTMGWYRQAPGKERELVATISSRGDGTYYADSVKGRFTISRDNAKNTVYLQMNSLKPEDTAVYYCAARYRRVHSGYGYWGQGTQVTVSS | high polyreactivity
27 | QDQLVESGGGLVQAGGSLRLSCAASGSIFVGYAMGWYRQAPGKETELVAAISTRGGSTYYADSVKGRFTISRDNAKNTVYLQMNSVKPEDTAVYYCAADYLDSTYGYVYGWDDYWGQGTQVTVSS | low polyreactivity
28 | QDQLVESGGGLVQAGGSLRLSCAASGSIFYQNAMGWYRQAPGKERELVAAISIGGGSTYYADSVKGRFTISRDNAKNTVYLQMNSLKPEDTAVYYCATRRSVIYSYVPFDYWGQGTQVTVSS | low polyreactivity
29 | QDQLVESGGGLVQAGGSLRLSCAASGSIIFFYVMGWYRQAPGKERELVAAITYSGGSTFYADSVKGRFTISRDNAKNSVYLQMNSLKPEDTAVNYCAAEYGQWTPLDPYNHWGQGTQVNVSS | low polyreactivity
30 | QDQLVESGGGLVQAGGSLRLSCAASGSNFLKYTMGWYRQAPGKERELVAAITSGGTTNYADSVKGRFTISRDNAKNTVYLQMNSLKPEDTAVYYCARDSYQLGLIRDPLEYDYWGQGTQVTVSS | low polyreactivity
31 | QDQLVESGGGLVQAGGSLRLSCAASGSSFGYYAMGWYRQAPGKERELVASISWRGVSTYYADSVKGRFTISRDNAKNTVYIQMNSLKPEDTAVYYCATVYRWSFDYWGQGTQVTVSS | low polyreactivity
32 | QDQLVESGGGLVQAGGSLRLSCAASGSTFDSYDMGWYRQAPGKERELVAAISGGGGTYYADSVKGRFTISRDNAKNTVYLQMNSLKPEDTAVYYCAARTNGWPGMGYWGQGTQVTVSS | high polyreactivity
